The results in this text go back to US20130149309A1.

The assay concerns the target amyloid precursor protein C-terminal fragment (APP-CTF), P05067. Put plainly: co-immunoprecipitation, HEK293 cells, with 10 µM imatinib. The following applies: remark: other sources report otherwise.

Sequence of amyloid precursor protein C-terminal fragment (APP-CTF), P05067 (P05067 672-770 limits assumed): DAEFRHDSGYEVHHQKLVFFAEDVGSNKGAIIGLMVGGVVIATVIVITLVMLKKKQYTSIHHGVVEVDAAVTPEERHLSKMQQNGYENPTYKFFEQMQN

B1: gSAP-16K-HA (16 KDa C-terminal fragment, amino acid sequence 733-854, of gSAP with a C-terminal HA tag), A4D1B5 733-854 (protein, human, UniProt A4D1B5 733-854, looked up, not shown: small tags and cut ends)
chain: RLMKDLDNTEKNEKLKFSIIVRLPPLIGQKICRLWDHPMSSNIISRNHVTRLLQNYKKQPRNSMINKSSFSVEFLPLNYFIEILTDIESSNQALYPFEGHDNVDAEFVEEAALKHTAMLLGL
For B1, the reduction of the interaction by imatinib (10 µM) came out at 47%.
